Earlier results as cited in US20230042670A1, “Hypoparathyroidism Treatment” (Ascendis Pharma Bone Diseases A/S, priority 2020, published 2023).

Assays:
[1] = in vivo
[2] = tested on: patients with hypoparathyroidism

Question: What does the source list for “PTH(1-84): short acting PTH molecule, approved drug for hypoparathyroidism; PTH 1-84, SEQ ID NO: 1”?
Answer: half-life [1]: ~3 h; clinical episodes of hypercalcemia ([2]; on treatment versus placebo, 24 weeks): numerical increase; clinical episodes of hypocalcemia ([2]; versus placebo, 24 weeks): no significant difference; urinary calcium excretion ([2]; versus placebo, 24 weeks): no significant difference; patients achieving the primary endpoint (50% or greater reduction in daily oral calcium and active vitamin D while maintaining serum calcium) ([2]; week 24, 50 μg per day titrated up to 100 μg): 53%
